Experiments:
Experiment in all cases: flow cytometry, CD3e knockout T2 cells pulsed with 50 µM peptide, antibody at 100 nM, PE anti-human IgG; gMFI standardized to the HLA/peptide amount; DMSO-only cells 1.15
2M = biological target: T1, 2M
T1 construct: also called HLA-A2 / point-mutant NY-ESO peptide 2M complex on CD3e knockout T2 cells
Description: (§1) The cells were washed 2 times in PBS containing 5% FBS, PE conjugated F(ab′)2 Fragment Anti-Human IgG (Jackson Immuno Research Laboratories) diluted with PBS containing 5% FBS was added at 25 μl/well, and the resultant was allowed to stand at 4° C. for 30 minutes. The cells were washed 2 times in PBS containing 5% FBS, immobilized with Mildform 10 N (FUJIFILM Wako Pure Chemical Corporation) overnight, and resuspended in PBS containing 5% FBS. […] The cells were washed 2 times in PBS containing 5% FBS, immobilized with Mildform 10 N (FUJIFILM Wako Pure Chemical Corporation) overnight, and resuspended in PBS containing 5% FBS. The cell suspensions were subjected to detection using a flow cytometer (CantoII, Becton Dickinson). […] The standardized gMFI indicating the binding affinity of each Fc-conjugated anti-HLA-A2/NY-ESO-anti-CD3 bispecific molecule standardized with the amount of the HLA/peptide complex on the CD3e knockout T2 cells was determined in accordance with the following equation.

9A = biological target: T2, 9A
T2 construct: peptide added to CD3e knockout T2 cells at 50 µM; also called HLA-A2 / point-mutant NY-ESO peptide 9A complex on CD3e knockout T2 cells
Description: as §1

5A = biological target: T3, 5A
T3 construct: also called HLA-A2 / point-mutant NY-ESO peptide 5A complex on CD3e knockout T2 cells
Description: as §1

3A = biological target: T4, 3A
T4 construct: also called HLA-A2 / point-mutant NY-ESO peptide 3A complex on CD3e knockout T2 cells
Description: as §1

6L = biological target: T5, 6L
T5 construct: also called HLA-A2 / point-mutant NY-ESO peptide 6L complex on CD3e knockout T2 cells
Description: as §1

4A = biological target: T6, 4A
T6 construct: also called HLA-A2 / point-mutant NY-ESO peptide 4A complex on CD3e knockout T2 cells
Description: as §1

B1: NYZ-1010 (bispecific antibody, human IgG1, lambda, L234A L235A)
chain 1: not shown
chain 2: not shown
light: NFMLTQPSSVSGVPGQRVTISCTGNTGNIGSNYVNWYQQLPGTAPKLLIYRDDKRPSGVPDRFSGSKSGTSASLAITGFQAEDEADYYCQSYSSGFIFGGGTKLTVLGQPKAAPSVTLFPPSSEELQANKATLVCLISDFYPGAVTVAWKADSSPVKAGVETTTPSKQSNNKYAASSYLSLTPEQWKSHRSYSCQVTHEGSTVEKTVAPTECS
For B1, the “standardized gMFI” value (2M) was 39.5, the “standardized gMFI” value (9A) was 51.9 and the “standardized gMFI” value (5A) was 1.02. The “standardized gMFI” value (3A) was 21.3, the “standardized gMFI” value (6L) was 37.6 and the “standardized gMFI” value (4A) was 1.05.

— patent publication US20230348616A1 (MIE UNIVERSITY, published 2023)
